Bridge positions count the residues as written; N and C are the ends.
B1: LCP W, loop-derived cyclic peptide based on spike residues 480-488 of the Wuhan strain (peptide)
peptide: H-CNGVEGFNC-NH2
modifications: disulfide 1-9
SMILES: CC(C)[C@@H]1NC(=O)CNC(=O)[C@H](CC(N)=O)NC(=O)[C@@H](N)CSSC[C@@H](C(N)=O)NC(=O)[C@H](CC(N)=O)NC(=O)[C@H](Cc2ccccc2)NC(=O)CNC(=O)[C@H](CCC(=O)O)NC1=O
notes: also called Wuhan loop peptide; Wuhan peptide
B2: LCP O, loop-derived cyclic peptide based on spike residues 480-488 of the Omicron strain (peptide)
peptide: H-CNGVAGFNC-NH2
modifications: disulfide 1-9
SMILES: CC(C)[C@@H]1NC(=O)CNC(=O)[C@H](CC(N)=O)NC(=O)[C@@H](N)CSSC[C@@H](C(N)=O)NC(=O)[C@H](CC(N)=O)NC(=O)[C@H](Cc2ccccc2)NC(=O)CNC(=O)[C@H](C)NC1=O
notes: also called Omicron loop peptide; Omicron peptide

Molecular target: T1, human glucose-regulated protein GRP78 (human, UniProt P11021 19-654)
T1 construct: also called heat shock protein A5; HSPA5; source: Escherichia coli, recombinant; bought: Abcam
Experiment: SPR
Settings: both partners purified

T1 sequence (P11021 19-654): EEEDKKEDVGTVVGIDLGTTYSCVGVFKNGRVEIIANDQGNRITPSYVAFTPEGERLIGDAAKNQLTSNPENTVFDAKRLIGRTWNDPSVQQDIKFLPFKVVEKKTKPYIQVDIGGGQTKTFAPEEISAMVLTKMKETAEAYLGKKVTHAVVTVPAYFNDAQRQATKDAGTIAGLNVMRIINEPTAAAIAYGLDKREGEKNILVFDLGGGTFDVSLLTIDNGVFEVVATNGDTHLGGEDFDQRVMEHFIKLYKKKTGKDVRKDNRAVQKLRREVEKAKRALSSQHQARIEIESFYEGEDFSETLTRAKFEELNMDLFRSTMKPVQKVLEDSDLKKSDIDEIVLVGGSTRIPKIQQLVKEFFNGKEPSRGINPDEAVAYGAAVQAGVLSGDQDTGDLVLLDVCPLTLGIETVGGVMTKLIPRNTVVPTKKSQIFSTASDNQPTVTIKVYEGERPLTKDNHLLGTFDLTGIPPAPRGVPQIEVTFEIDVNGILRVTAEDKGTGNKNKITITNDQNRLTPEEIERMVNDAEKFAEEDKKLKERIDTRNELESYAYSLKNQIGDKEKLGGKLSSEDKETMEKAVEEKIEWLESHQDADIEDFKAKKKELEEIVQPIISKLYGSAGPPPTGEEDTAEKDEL

| Binder | IC50 [nM] | Kd [nM] |
| --- | --- | --- |
| B1 | 763 | – |
| B2 | 693 | 2000 |
